Patent US20180142284, “MULTIPLEX ANALYSIS OF GENE EXPRESSION IN INDIVIDUAL LIVING CELLS” (THE GENERAL HOSPITAL CORPORATION, published 2018)

What was measured:
[1] = target: PKR dsRBD (MAGIC factor), Alexa Fluor 488-labeled, not affinity purified (Homo sapiens) (UniProt P19525); experiment: pulldown; conditions: only 4% of labeled protein able to bind dsRNA
[2] = target: T1, PKR dsRBD (MAGIC factor), Alexa Fluor 488-labeled, affinity purified on dsRNA-agarose (Homo sapiens, UniProt P19525 SEQ:22-205); experiment: EMSA; Kd value only in figure; about 30-fold higher affinity than unpurified labeled protein; conditions: tags: N-terminal His6; Alexa Fluor 488 on primary amines; label: Alexa Fluor 647
T1 chain: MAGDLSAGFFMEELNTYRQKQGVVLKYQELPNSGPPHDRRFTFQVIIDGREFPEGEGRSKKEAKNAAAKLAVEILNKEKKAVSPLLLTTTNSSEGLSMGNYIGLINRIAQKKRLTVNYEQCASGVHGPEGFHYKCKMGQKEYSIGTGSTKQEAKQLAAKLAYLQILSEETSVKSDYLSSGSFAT
Text: (§1) MAGIC factor was fluorescently-labeled with Alexa Fluor 488 and then reacted with dsRNA-coupled agarose beads to separate binding, functional protein (eluate) from non-binding, non-functional protein (flow and wash fractions). […] Unlabeled and unpurified fluorescent MAGIC factor and affinity purified fluorescent MAGIC factor were reacted with Alexa Fluor 647-labeled dsRNA and ssRNA and run on a native gel. The gel was visualized in the RNA channel (Ex. 633 nm/Em. 670/30 nm BP), protein channel (Ex. 488 nm/Em. 526 nm SP) and FRET channel (Ex. 488 nm/Em. 670/30nm). […] The dashed lines represent the cutoff after which increasing concentrations of only unpurified MAGIC factor were reacted with dsRNA.

[3] = target: T1, PKR dsRBD (MAGIC factor), Alexa Fluor …; experiment: EMSA; stated to bind specifically to dsRNA; gel result only in figure; conditions: tags: N-terminal His6; Alexa Fluor 488 on primary amines; label: Alexa Fluor 647
Text: as §1

**Q.** With dsRNA coupled to agarose beads as the molecule, how does the binding signal [1] read?
**A.** 4%

B1: EMSA dsRNA (dsRNA)
RNA 1: GAGUCCUUCCACGAUACC
RNA 2: GGUAUCGUGGAAGGACUC
modifications: aminoallyl-uridine in labeled strand; sequence printed with T, transcribed as RNA
**Q.** Does B1 bind [2]?
**A.** binds

B2: EMSA ssRNA (ssRNA)
RNA: GAGUCCUUCCACGAUACC
modifications: aminoallyl-uridine; sequence printed with T, transcribed as RNA
**Q.** Does B2 bind [3]?
**A.** no binding
